This note sets out measurements from patent publication US20240132579A1 (DOTBIO PTE, published 2024).

Where only a bound is given, the exact number is not on record here.

Experiment [1] concerns the target T1, Human VEGF-121 (Acro Biosystems) (human, UniProt P15692 207-395).
T1 construct: Bought protein; also called human VEGFA
T1 sequence: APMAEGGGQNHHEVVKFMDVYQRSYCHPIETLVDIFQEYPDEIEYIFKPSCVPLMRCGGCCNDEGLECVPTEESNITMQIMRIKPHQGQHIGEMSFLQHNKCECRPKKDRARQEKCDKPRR
The experiment can be described thus: competitive ELISA: inhibition of 0.5 nM human VEGF-121 binding to coated VEGFR1 (FIG. 4). As to the method:
(§1) To perform the competitive ELISA, the VEGFR1 was immobilized at a concentration of 2 μg/mL onto a Maxisorp 96-well plate (Thermo Scientific) overnight at 4° C., washed three times with PBS and blocked for 1 h at RT with ELISA Block Buffer (EBB: 0.2% BSA in PBST). […] The samples were incubated for 2 h at RT, and 50 μL transferred onto the VEGFR1-coated plate. After 2 h incubation, the plate was washed 3 times with PBST. 50 μL of streptavidin-HRP conjugate (Thermo Scientific) was added at a 1:5,000 dilution in EBB, and incubated for 1 h at RT. The plate was washed 5 times with PBST, and developed with 50 μL 3,3′,5,5′-Tetramethylbenzidine (TMB) substrate (GeneTex). After 5-15 min, the reactions were stopped by adding 50 μL of 2M H₂SO₄, and signal was measured at an absorbance of 450 nm.
In general terms: In an ELISA, binding on a coated surface is turned into a signal by an enzyme label.

For experiment [2], the target named is T1, Human VEGF-121 (Acro Biosystems). The experiment can be described thus: competitive ELISA: inhibition of 0.5 nM human VEGF-121 binding to coated VEGFR1 (FIG. 5). As to the method: as §1
The target in the next experiment is VEGFA (UniProt P15692-4 27-191, limits assumed). Briefly: method not stated.
Experiment [3] addresses T2, biotinylated murine VEGF-164 (Acro Biosystem) (mouse, UniProt Q00731-2 27-190, biotinylated (site not stated)).
T2 construct: also called Mouse VEGF164; murine VEGFA
T2 sequence (looked up): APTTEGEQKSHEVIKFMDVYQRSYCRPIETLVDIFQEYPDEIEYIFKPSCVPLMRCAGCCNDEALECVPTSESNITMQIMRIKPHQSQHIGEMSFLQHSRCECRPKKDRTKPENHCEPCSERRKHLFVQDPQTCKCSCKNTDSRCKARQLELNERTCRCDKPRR
The experiment can be described thus: BLI, biotinylated VEGF on streptavidin tips, 1:1 global fit. As to the method:
(§2) Binding characterization was performed using BLI (Satorius) at RT with a 1000 rpm flow-rate. Biotinylated human VEGF-165 (Acro Biosystem) was immobilized onto Streptavidin-coated tips at a concentration of 3 μg/mL for 60 sec in BLI buffer (0.1% BSA and 0.01% Tween-20 in PBS). After a 30 sec baseline, anti-VEGFA DotBodies were associated at 8 different concentrations, including a blank reference, in BLI buffer for 60 sec, followed by a 400 sec dissociation in BLI buffer. The background buffer signal was subtracted using the 0 nM concentration reference, and the kinetics of binding were calculated using a global fit following a 1:1 binding model, using BLI Analysis Software. The bivalent molecule 16A2.1×2 was also characterized as described here, but with a 600 sec dissociation. To characterize the binding of all the clones against murine VEGFA, the same procedure was employed, but the immobilized target was replaced with biotinylated murine VEGF-164 (Acro Biosystem).
In general terms: BLI is a label-free optical method that tracks binding on a fibre tip over time.

The target in experiment [4] is T3, Biotinylated human VEGF-165 (Acro Biosystem) (human, UniProt P15692 207-395, biotinylated (site not stated)).
T3 construct: Bought protein; also called human VEGFA
The description is as above. As to the method:
as §2

B1: anti-VEGFA DotBody 16C2.1 (VHH)
VHH: EVQLVESGGGLVQPGGSLRLSCAISGFSLAATDIDWVRQAPGKGLEWVARIFSPSDFTDYADSVKGRFTISADTSKNTVYLQMNSLRAEDTAVYYCGRPDTYAYNIFLDTPTYNALHYRGQGTLVTVSS
notes: Humanized, stabilized autonomous VH domain (single domain antibody, 'DotBody') derived from the trastuzumab VH
What is called IC50 is the concentration at which inhibition is half-maximal. A higher IC50 goes with weaker potency. As usually defined, the Kd is the equilibrium constant for the complex coming apart. As a reminder, the koff is the first-order rate constant of dissociation. Lower therefore signals slow dissociation. A word on the kon: it is the second-order rate constant of association. A low value points to slow association. Turning to B1, the IC50 in experiment [1] was determined as 2.3 nM; in experiment [2], 1.8 nM. In addition, the results for the Kd (in the experiment with VEGFA; in experiment [3]; in experiment [4]) were below 5 nM, 14.6 nM and 3 nM, respectively. For the same molecule, the figures for the dissociation rate constant (koff) in experiment [3] and in experiment [4] were 0.00173 s⁻¹ and 0.00032 s⁻¹, respectively. Further, the figures for the kon in experiment [3] and in experiment [4] were 118000 M⁻¹ s⁻¹ and 106000 M⁻¹ s⁻¹, respectively.

B2: anti-VEGFA DotBody 21A5.1 (VHH)
VHH: EVQLVESGGGLVQPGGSLRLSCAISGFSLVETDIDWVRQAPGKGLEWVARIFLPSGSTYYADSVKGRFTISADTSKNTVYLQMNSLRAEDTAVYYCGSPDTYAYNIFLDTPAYKGLSYRGQGTLVTVSS
Regarding B2, in experiment [2], the 50% inhibitory concentration (IC50) was 12.8 nM. In experiment [3], this molecule returned a Kd of 15.3 nM, a koff of 0.00128 s⁻¹ and a kon of 83600 M⁻¹ s⁻¹. In experiment [4], this molecule came in with an equilibrium dissociation constant (Kd) of 3.37 nM, a dissociation rate constant (koff) of 0.000363 s⁻¹ and an association rate constant (kon) of 105000 M⁻¹ s⁻¹.
